Values joined by “and” are separate entries in the source; they are usually repeats but may differ in a detail not shown here. Equal entries are not always repeated.

The target of test [1] is human nucleosome core particle, wild type, unlabelled (human) (UniProt P04908). Kind of test: native gel or EMSA; 50 or 100 nM 147-bp hNCP with 200 or 50 nM mcGAS-CR and 0–1.2 µM MRN; 20 mM HEPES pH 7.5, 50 mM NaCl, 5% sucrose, 1 mM DTT; on ice; gel scanned for mcGAS-CR fluorescence, then ethidium bromide.
Test [2] has as its target 6×His-Sumo tagged mouse cGAS catalytic domain (UniProt Q8C6L5). Kind of test: TR-FRET competition assay. The note with it: unlabelled competitor at the highest titrated concentration, est. ~5,000 nM; signal is residual cGAS-biotin-NCP TR-FRET (lower = more competition); parent: est. 0.16; read off a plot.
In test [3] the target is 147 bp nucleosome reconstituted with H2B(K125C)-biotin (human) (UniProt P04908). Kind of test: AlphaScreen or HTRF; TR-FRET competition: 15 nM 6×His-Sumo-mcGAS, 2 nM biotin NCP, 4 nM Eu-W1024 streptavidin, 10 nM ULight-anti-6×His; 0–2,000 nM untagged MRN or 0–5,000 nM unlabelled nucleosome; 10 mM Tris-HCl pH 7.5, 50 mM NaCl, 5% glycerol, 0.01% NP-40, 0.01% CHAPS, 5 mM DTT, 100 µg/ml BSA; 1 h at room temperature.

On to “carboxyrhodamine-labelled mouse cGAS catalytic domain (from UniProt Q8C6L5 141-507) (domain or fragment)”, for which the stoichiometry N in test [1] was 1 cGAS per NCP and 2 cGAS per NCP. With “human nucleosome core particle, wild type, unlabelled (from UniProt P04908;P62807;Q71DI3;P62805) H2A:E61A; H2A:E64S; H2A:N68A; H2A:D72S; H2A:N89A; H2A:D90A; H2A:E91S”, the response (normalized fluorescence) in test [2] was found to be 0.63. “untagged MRN complex (mixture of 2 unlabelled MR:1 NBS1–Flag) (from UniProt P49959 1-708; Q92878 1-1312; O60934 1-754)” yielded a percent reduction of the cGAS–NCP TR-FRET signal at plateau in test [3] of 50%.
